The values below come from patent US20260351346 (published 2026).

Substitutions are numbered along the chain they refer to.

B1: 4C2-WTH (antibody, V domains shown)
VH: QSVEESGGRLVTPGTPLTLTCTVSGFSLGTFPIGWVRQAPGSGLEWIGIFNTDGSAAYASWARGRFTVFKNSTTVDLKMTSPTTEDTATYFCARINADYSGWYFGIWGPGTLVTVSS
VL: EMTQTPASVEVAVGGTVTIKCQASQSIYSYLAWYQQKPGQPPKPLIYEASKTPSGVPSRFKGSGSGTEYTLTISGVQCEDAATYYCQKGYSVSNVAFGGGTEVVVK
B2: 4C2-Candi4 (antibody, V domains shown)
VH: EVQLEESGGGVVQPGGSLKLSCTVSGFSLGTFPIGWVRQAPGKGLEWVGIFNTDGSAAYAASVKGRFTVSKNSTKNTVYLHMNSLKTEDTAVYFCARINADYSGWYFGIWGQGTLVTVSS
VL: DIQMTQSPSSLSVSVGGRVTITCQASQSIYSYLAWYQQKPGKAPKLLIYEASKTPSGVPSRFNGNGSGTEYTLTISSLQPEDSATYYCQKGYSVSNVAFGGGTEVEIK
B3: 4C2-Candi3 (antibody, V domains shown)
VH: B2 VH with V11L, K19A, K71R, N72D, T74S
VL: B2 VL with V13A, E70D, Y71F
B4: 4C2-Candi2 (antibody, V domains shown)
VH: B2 VH with V11L, G16M, K19R, T68N
VL: B2 VL with D1A, I2Q

TNFRSF9 (CD137) (human), sequence (chain, as listed by the source): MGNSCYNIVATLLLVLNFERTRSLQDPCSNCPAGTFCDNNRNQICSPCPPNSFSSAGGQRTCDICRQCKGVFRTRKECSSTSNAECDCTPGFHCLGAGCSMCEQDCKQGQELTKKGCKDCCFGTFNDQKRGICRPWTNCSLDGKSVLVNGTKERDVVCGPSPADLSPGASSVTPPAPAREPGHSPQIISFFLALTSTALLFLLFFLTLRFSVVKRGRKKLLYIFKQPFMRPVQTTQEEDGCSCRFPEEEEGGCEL

This test addresses TNFRSF9 (CD137) (human). Kind of test: ELISA.
As for B1, the EC50 came to 3.8 ng/mL.
On to B2, for which it took 2.46 ng/mL to reach a half-maximal effect (EC50).
On to B3, for which the EC50 stood at 100 ng/mL. Against the preceding molecule, the EC50 is about 41-fold higher.
Turning to B4, the concentration for a half-maximal effect (EC50) worked out at 2.38 ng/mL.
